B1: pentynyl-dU clone 24 60-mer (ssDNA)
DNA: TAGAATACTCAAGCTTCGACGGTATATAGTATAGTATTGGCAGTTTGGATCCCCGGGTAC
modifications: X 5-pentynyl-dU; T in 3' constant region also 5-pentynyl-dU; T in 5' constant region unmodified [23,25,27,30,32,35,37,38 (X = 5-pentynyl-dU); 44,45,46,50,58 (3' constant region T = 5-pentynyl-dU)]

Tests used:
[1] = biological target: T1, thrombin (alpha, Factor IIa) (Homo sapiens, UniProt P00734;P00734 P00734:328-363,P00734:364-622); assay: inhibition; 100 nM; no DNA 23 s
[2] = biological target: T1, thrombin (alpha, Factor IIa); assay: inhibition
[3] = biological target: T1, thrombin (alpha, Factor IIa); assay: filter
serum albumin = serum albumin (Homo sapiens, UniProt P02768 P02768:25-609); assay: EMSA; 500 nM protein, 4 C
Sequence of serum albumin (P02768 25-609, one chain of several): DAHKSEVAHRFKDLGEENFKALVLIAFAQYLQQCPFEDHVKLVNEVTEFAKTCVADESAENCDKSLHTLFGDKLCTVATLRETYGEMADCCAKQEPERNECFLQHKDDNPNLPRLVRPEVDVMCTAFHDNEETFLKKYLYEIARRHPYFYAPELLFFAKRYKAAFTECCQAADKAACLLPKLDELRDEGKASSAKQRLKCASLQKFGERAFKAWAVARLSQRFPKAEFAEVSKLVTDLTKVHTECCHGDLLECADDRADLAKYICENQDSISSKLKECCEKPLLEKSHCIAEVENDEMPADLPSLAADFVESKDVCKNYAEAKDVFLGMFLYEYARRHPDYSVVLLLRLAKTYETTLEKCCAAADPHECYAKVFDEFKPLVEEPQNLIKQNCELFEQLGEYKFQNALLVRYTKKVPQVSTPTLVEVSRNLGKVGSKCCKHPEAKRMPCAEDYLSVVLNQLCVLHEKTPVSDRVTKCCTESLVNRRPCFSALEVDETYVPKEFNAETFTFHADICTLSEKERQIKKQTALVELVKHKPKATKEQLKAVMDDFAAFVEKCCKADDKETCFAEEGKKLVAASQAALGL

trypsin = trypsin (UniProt P00760 P00760:24-246); assay: EMSA; 500 nM protein, 4 C
Sequence of trypsin (P00760 24-246, one chain of several): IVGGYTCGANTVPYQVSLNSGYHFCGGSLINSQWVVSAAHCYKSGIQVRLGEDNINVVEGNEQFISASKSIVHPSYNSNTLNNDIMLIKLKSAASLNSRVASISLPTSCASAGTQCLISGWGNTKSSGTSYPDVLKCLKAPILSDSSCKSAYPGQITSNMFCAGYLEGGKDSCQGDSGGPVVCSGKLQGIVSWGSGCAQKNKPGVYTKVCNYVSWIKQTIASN

chymotrypsin = chymotrypsin (UniProt P00766;P00766;P00766 P00766:1-13,P00766:16-146,P00766:149-245); assay: EMSA; 500 nM protein, 4 C
prothrombin = prothrombin (Homo sapiens, UniProt P00734 P00734:44-622); assay: EMSA; 500 nM protein, 4 C
Factor X = Factor X (UniProt P00742;P00742 P00742:41-179,P00742:183-488); assay: EMSA; 500 nM protein, 4 C; settings: tags: Haematologic Technologies HCXA-0060
Sequence of Factor X (P00742 41-179, chain 1 of 2): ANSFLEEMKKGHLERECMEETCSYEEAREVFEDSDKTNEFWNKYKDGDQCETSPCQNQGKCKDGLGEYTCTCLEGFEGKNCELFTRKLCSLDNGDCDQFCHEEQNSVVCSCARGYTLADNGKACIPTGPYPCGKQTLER
Sequence of Factor X (P00742 183-488, chain 2 of 2): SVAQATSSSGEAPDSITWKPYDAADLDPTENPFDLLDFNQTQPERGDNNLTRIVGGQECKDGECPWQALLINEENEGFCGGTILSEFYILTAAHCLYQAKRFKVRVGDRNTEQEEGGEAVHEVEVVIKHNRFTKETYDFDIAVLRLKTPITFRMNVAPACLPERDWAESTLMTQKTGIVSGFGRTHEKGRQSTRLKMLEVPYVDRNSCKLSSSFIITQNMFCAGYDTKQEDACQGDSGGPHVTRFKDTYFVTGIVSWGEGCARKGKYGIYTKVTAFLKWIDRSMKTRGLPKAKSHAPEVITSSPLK

Binder	activity [1] [s clot time]	Ki [2] [µM]	also measured
GGTTGGTGTGGTTGG (ssDNA, Z 5-(1-propynyl)-2'-deoxyuridine [3 (Z = 5-(1-propynyl)-2'-deoxyuridine)]) [15-mer propynyl-dU 3]	138		
GGTTGGTGTGGTUGG (ssDNA, U13 is 5-(1-pentynyl)-2'-deoxyuridine) [15-mer pentynyl-U13]		0.02	
GGUTGGTGTGGUTGG (ssDNA, dU at 3 and 12) [15-mer dU3 dU12]		0.08	
GGTTGGTGTGGTTGG (ssDNA, Z 5-(1-propynyl)-2'-deoxyuridine [12 (Z = 5-(1-propynyl)-2'-deoxyuridine)]) [15-mer propynyl-dU 12]	129		
GGTTGGTGTGGTTGG (ssDNA, Z 5-(1-propynyl)-2'-deoxyuridine [9 (Z = 5-(1-propynyl)-2'-deoxyuridine)]) [15-mer propynyl-dU 9]	120		
GGTTGGTGTGGTTGG (ssDNA, Z 5-(1-propynyl)-2'-deoxyuridine [7 (Z = 5-(1-propynyl)-2'-deoxyuridine)]) [15-mer propynyl-dU 7]	118		
GGTTGGUGUGGTTGG (ssDNA, dU at 7 and 9) [15-mer dU7 dU9]		0.015	
GGTTGGGCTGGTTGGGTTGGG (ssDNA) [21-mer thrombin aptamer]		~0.1	Kd [3]: ~0.35 µM
GGTTGGTGTGGTTGG (ssDNA, Z 5-(1-propynyl)-2'-deoxyuridine [4 (Z = 5-(1-propynyl)-2'-deoxyuridine)]) [15-mer propynyl-dU 4]	187		
B1			Kd [3]: 0.4 µM; binding result (serum albumin): no binding; binding result (trypsin): no binding; binding result (chymotrypsin): no binding; binding result (prothrombin): no binding; binding result (Factor X): no binding

Reference: patent US5756291, “Aptamers specific for biomolecules and methods of making” (Gilead Sciences, Inc.)
